The target in experiment [1] is CaVβ2b with N-terminal deca-histidine tag (purified from E. coli). The experiment in a line: isothermal titration calorimetry, purified proteins, 25 °C, nb.F3 injected into CaVβ2b. Background: In ITC the heat of successive injections is recorded.
The target is the same in experiment [2]. The experiment is described as follows: isothermal titration calorimetry, nb.F3 injected into CaVβ2b, T=298K.
For experiment [3] the target is unchanged. The experiment in a line: isothermal titration calorimetry, purified proteins, 25 °C.

B1: nb.F3 with N-terminal deca-histidine tag (purified from E. coli) (VHH)
VHH: QVQLQESGGGLVQAGGSLRLSCVASGRTFSSYAMGWFRQAPGKEREFVAAIDWSGGTASHADSVKGRFTISRDNAKNTVYLQMNSLKPEDTAVYYCAASSYWSRSVDEYDYWGQGTQVTVSS
In the case of B1, the Kd (commonly the concentration at which binding is half-saturated) in experiment [1] was 13.2 nM. For the same molecule, in experiment [2], the Ka is 1.07e+08 M⁻¹, the N (stoichiometry) came out at 0.93, the ΔH is -14.9 kcal/mol and the ΔS (cal mol-1 K-1) was -13.8. In experiment [3], this molecule had a stoichiometry of 1.

These data come from patent US20220033493A1.
